US20090068234A1 (US Dept. of Health and Human Services, published 2009)

Target: OFA alone (control OFA construct, not fused to a chemoattractant) (murine, UniProt P14206 1-295)
Assay: ligand binding-internalization assay on iDC, flow cytometry (data not shown)
Procedure: The ligand binding-internalization assays were performed with iDC or splenocytes (1×10⁵) blocked with mouse serum in PBS containing 2% BSA. Fusion proteins (10-50 μg/ml) were incubated in complete medium for Ih at 37° C. or at 4° C. To detect bound proteins, the cells were incubated with anti-c-myc mAb or isotype-matched, purified mouse IgG1, followed with α-mouse Ig-FITC mAb incubation (Jackson ImmunoResearch Laboratory, Bar Harbor, Me.) for 20 min each, and then fixed with 1% paraformaldehyde. The binding-internalization was assessed via flow cytometry on a FACScan (Becton Dickinson, Franklin Lakes, N.J.) using CellQuest software.

binding result: no binding
B1: CCR6 expressed on murine BM iDC (receptor)
chain: MNSTESYFGTDDYDNTEYYSIPPDHGPCSLEEVRNFTKVFVPIAYSLICVFGLLGNIMVVMTFAFYKKARSMTDVYLLNMAITDILFVLTLPFWAVTHATNTWVFSDALCKLMKGTYAVNFNCGMLLLACISMDRYIAIVQATKSFRVRSRTLTHSKVICVAVWFISIIISSPTFIFNKKYELQDRDVCEPRYRSVSEPITWKLLGMGLELFFGFFTPLLFMVFCYLFIIKTLVQAQNSKRHRAIRVVIAVVLVFLACQIPHNMVLLVTAVNTGKVGRSCSTEKVLAYTRNVAEVLAFLHCCLNPVLYAFIGQKFRNYFMKIMKDVWCMRRKNKMPGFLCARVYSESYISRQTSETVENDNASSFTM
notes: whole, on cells
